Measured values from US20030203841A1 (US Dept. of Health and Human Services, published 2003).
Where no end group is shown, it is not given here. The star is where a group is joined. For = O=C*

Tests used:
[1] = target: epitope tagged N-formyl peptide receptor (FPR) on ETFR cells (stably transfected rat basophilic leukemia cells) (human) (UniProt P21462); experiment: competition of unlabeled fMLP with ^3H-fMLP for binding to FPR expressing ETFR cells, filtration, 20 min at 37 C
[2] = target: epitope tagged N-formyl peptide receptor (FPR) on ETFR cells (stably transfected rat basophilic leukemia cells) (human) (UniProt P21462); experiment: cell-based or functional assay
[3] = target: T1, epitope tagged N-formyl peptide receptor (FPR) on ETFR cells (stably transfected rat basophilic leukemia … (human, UniProt P21462 1-350)); experiment: cell-based or functional assay
T1 sequence: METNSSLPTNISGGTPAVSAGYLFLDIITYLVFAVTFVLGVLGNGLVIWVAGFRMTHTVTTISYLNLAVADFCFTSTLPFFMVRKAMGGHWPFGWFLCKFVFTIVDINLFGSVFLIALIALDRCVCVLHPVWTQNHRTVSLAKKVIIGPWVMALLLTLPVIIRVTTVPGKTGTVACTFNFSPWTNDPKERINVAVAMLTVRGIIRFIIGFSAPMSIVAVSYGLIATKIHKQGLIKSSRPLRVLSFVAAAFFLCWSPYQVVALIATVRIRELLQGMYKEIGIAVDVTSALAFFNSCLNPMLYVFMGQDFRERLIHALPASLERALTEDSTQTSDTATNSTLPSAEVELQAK

[4] = target: T2, FPR-like receptor 1 (FPRL1) on transfected human embryonic kidney 293 cells (FPRL1/293 cells) (human, UniProt P25090 1-351); experiment: cell-based or functional assay
T2 sequence: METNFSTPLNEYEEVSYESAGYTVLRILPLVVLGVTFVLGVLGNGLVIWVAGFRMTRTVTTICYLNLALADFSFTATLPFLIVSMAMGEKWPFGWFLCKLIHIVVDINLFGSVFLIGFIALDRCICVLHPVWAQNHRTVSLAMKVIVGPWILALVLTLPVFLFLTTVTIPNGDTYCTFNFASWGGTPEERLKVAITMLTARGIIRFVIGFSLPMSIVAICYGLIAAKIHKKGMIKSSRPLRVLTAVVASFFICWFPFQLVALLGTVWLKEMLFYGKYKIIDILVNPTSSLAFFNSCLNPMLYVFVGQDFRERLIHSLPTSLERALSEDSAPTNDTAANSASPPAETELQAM

Question: For “N-formyl-methionyl-leucyl-phenylalanine (fMLP) (peptide)”, which IC50 [1] is on record?
Answer: The IC50 was 1 nM.

Question: What about the EC50 of migration of ETFR cells (chemotaxis) [2] of the same molecule?
Answer: The EC50 of migration of ETFR cells (chemotaxis) was 0.5 nM.

Question: And the concentration required to induce a change in the ratio of 2 at 340/380 nm fluorescence (Ca^++) in FPR expressing cells [2]?
Answer: Its concentration required to induce a change in the ratio of 2 at 340/380 nm fluorescence (Ca^++) in FPR expressing cells is 1e-10.

B1: T21/DP107 (peptide)
peptide: NNLLRAIEAQQHLLQLTVWGIKQLQARILAVERYLKDQ
modifications: also: some embodiments acylated, form not given here
Question: How did the “concentration required to induce a change in the ratio of 2 at 340/380 nm fluorescence (Ca^++) in FPR expressing cells” value [3] turn out when B1 was run?
Answer: Its value is 1e-05.

Question: And the “EC50 of migration of FPRL1/293 cells (chemotaxis)” value [4]?
Answer: The value was 50 nM.

Question: What about the “concentration required to induce a change in the ratio of 0.6 at 340/380 nm fluorescence (Ca^++) in FPRL1/293 cells” value [4] of the same molecule?
Answer: Its value is 5e-07.

B2: N-formyl-methionyl-leucyl-phenylalanine (fMLP) (peptide)
peptide: For-Met-Leu-Phe
modifications: also: tritiated (3H) form used as tracer
Question: With B2 as the molecule, how does the “concentration required to induce a change in the ratio of 0.6 at 340/380 nm fluorescence (Ca^++) in FPRL1/293 cells” value [4] read?
Answer: The value was 5e-05.

Question: What about the “excess of fMLP needed to desensitize the Ca^++ flux induced by T21/DP107 in FPRL1/293 cells” value [4] of the same molecule?
Answer: The value was 1000 fold.
